{"source": "patent US11407988B2", "about": "“Composition and uses thereof” (priority 2015, dated 2022)", "key": {"[1]": {"tested_on": "purified protease of Thermoactinomyces sp. 16 (protease 16)", "format": "biochemical", "settings": "for Inhibition of the enzyme (in words): 10 mM inhibitor"}, "BSA (1%, w/v) [2]": {"tested_on": "BSA (1%, w/v)", "assay": "Effect of pH on protease activity of original and recombinant proteinase 16", "format": "biochemical", "settings": "0.1M Universal buffer, 30 min, 40 C"}, "[3]": {"target": "PrP^Sc, RML scrapie strain (Mus musculus, UniProt P04925)", "settings": "pH 7"}, "[4]": {"tested_on": "bovine serum albumin (BSA)", "assay": "Protease assay of purification steps of protease 16 (BSA, 0.1M CAPS pH 11.0, 40° C.)", "format": "biochemical", "excerpt": "The secreted protease was purified from cell free supernatant by (NH4)2SO4 (0-60%) fractionation followed by affinity chromatography on Bacitricin-Sepharose 4B according to the quantities shown in Table 3 below.\nThe first step was ammonium sulphate (0-60%) fractionation. To express the final ammonium sulphate concentration as % ammonium sulphate saturation the Green and Hughes calculations were used. The precipitate obtained after fractionation was suspended in 0.02M HEPES buffer, pH 7.0 and was dialysed against water for 24 h. The second step used was affinity chromatography on bacitracin-Sepharose 4B using a modification of the method of Stepanov and Rudenskaya. Bacitracin-Sepharose 4B was equilibrated with 0.04M Tris/HCL, pH 7.9. Enzyme solution in 0.04M Tris/HCL pH 7.9 was applied to the column and the column was washed with the same buffer to remove all unbound protein. […] The propan-2-ol and NaCl were removed from the protease solution by dialysis."}, "[5]": {"target": "PrP (PrP^C and PrP^Sc) in N2a22L20 lysate, 22 L scrapie strain (Mus musculus, UniProt P04925)", "settings": "pH 7"}, "[6]": {"target": "PrP (PrP^C and PrP^Sc) in GTK lysate, chandler scrapie isolate (Mus musculus, UniProt P04925)", "settings": "pH 7"}, "[7]": {"target": "PrP (PrP^C and PrP^Sc) in GT22L lysate, 22 L scrapie strain (Mus musculus, UniProt P04925)", "settings": "pH 7"}, "PrP^Sc, BSE strain 301V": {"target": "PrP^Sc, BSE strain 301V (Mus musculus, UniProt P04925)", "settings": "pH 7"}, "[8]": {"target": "pK resistant prion material (PrP^Sc) (Mus musculus, UniProt P04925)"}, "BSA (1%, w/v) [9]": {"tested_on": "BSA (1%, w/v)", "assay": "Effect of pH and temperature on protease activity"}, "[10]": {"settings": "10 mM reagent, purified protease 16"}}, "note": "Several values for one entry are separate records, joined by “and”; a condition that tells them apart may be missing. Equal entries are not always repeated. Where two headings read alike, the source gives them in different places. Where a SMILES comes first, the peptide text is derived from it. [ ]: non-standard residue; d: D form. The star is where a group is joined. Sta = CC(C)C[C@H](N)[C@@H](O)CC(=O)O; Isovaleryl = CC(C)CC(=O)*"}
{"molecule": "CC(C)C[C@H](NC(=O)[C@@H](O)[C@H](N)Cc1ccccc1)C(=O)O", "note": "[Bestatin]", "values": [{"measurement": "Residual protease activity (% of control, no reagent) (10 mM)", "setting": "[1]", "result": "92.6 % of control, no reagent"}]}
{"molecule": "O=C(O)CN(CCN(CC(=O)O)CC(=O)O)CC(=O)O", "note": "[Ethylenediaminetetraacetic acid]", "values": [{"measurement": "Residual protease activity (% of control, no reagent) (10 mM)", "setting": "[1]", "result": "99.6 % of control, no reagent"}]}
{"molecule": "CC(=O)N[C@@H](CC(C)C)C(=O)N[C@@H](CC(C)C)C(=O)N[C@H](C=O)CCCNC(=N)N", "note": "[Leupeptin]", "values": [{"measurement": "Residual protease activity (% of control, no reagent) (10 mM)", "setting": "[1]", "result": "56.8 % of control, no reagent"}]}
{"molecule": "Cl.NCCc1ccc(S(=O)(=O)F)cc1", "note": "[Pefabloc]", "values": [{"measurement": "Inhibition of the enzyme (in words)", "setting": "[1]", "result": "significantly inhibited"}, {"measurement": "Residual protease activity (% of control, no reagent) (10 mM)", "setting": "[1]; [10]", "result": "2.9 % of control, no reagent"}]}
{"molecule": "CC(C)CC(=O)N[C@H](C(=O)N[C@H](C(=O)N[C@@H](CC(C)C)[C@@H](O)CC(=O)N[C@@H](C)C(=O)N[C@@H](CC(C)C)[C@@H](O)CC(=O)O)C(C)C)C(C)C", "note": "[Pepstatin] (Isovaleryl-VV[Sta]A[Sta]-OH)", "values": [{"measurement": "Residual protease activity (% of control, no reagent) (10 mM)", "setting": "[1]", "result": "97.6 % of control, no reagent"}]}
{"molecule": "O=S(=O)(F)Cc1ccccc1", "note": "[Phenylmethylsulfonyl fluoride]", "values": [{"measurement": "Inhibition of the enzyme (in words)", "setting": "[1]", "result": "significantly inhibited"}, {"measurement": "Residual protease activity (% of control, no reagent) (10 mM)", "setting": "[1]; [10]", "result": "5.4 % of control, no reagent"}]}
{"molecule": "recombinant Thermitase 16: protease 16 cloned and heterologously expressed in Lactococcus lactis strain MG1363 (L. lactis strain 16), heat activated (protein) YTPNDPYFSSRQYGPQKIQAPQAWDIAEGSGVKIAIVDTGVQSNHPDLAGKVVGGWDFVDNDSTPQDGNGHGTHCAGIAAAVTNNSTGIAGTAPKASILAVRVLDNSGSGTWTAVANGITYAADQGAKVISLSLGGTVGNSGLQQAVDYAWNKGSVVVAAAGNAGNTAPNYPAYYSNAIAVASTDQNDNKSSFSTYGSWVDVAAPGSSIYSTYPTSTYASLSGTSMATPHVAGVAGLLASQGRSASNIRAAIENTADKISGTGTYWAKGRVNAYKAVQY", "values": [{"measurement": "Activity levels of original versus recombinant protease at the same pHs", "setting": "BSA (1%, w/v) [2]", "result": "little difference in activity levels"}, {"measurement": "Removal of RML prion strain as detected by western blot", "setting": "[3]", "result": "remove all traces of the RML prion strain"}]}
{"molecule": "protease 16: Thermitase (serine alkaline protease, EC 3.4.21.66) secreted by Thermoactinomyces sp. 16; mature amino acid sequence SEQ ID NO: 1 (protein, Thermoactinomyces sp. 16) YTPNDPYFSSRQYGPQKIQAPQAWDIAEGSGVKIAIVDTGVQSNHPDLAGKVVGGWDFVDNDSTPQDGNGHGTHCAGIAAAVTNNSTGIAGTAPKASILAVRVLDNSGSGTWTAVANGITYAADQGAKVISLSLGGTVGNSGLQQAVDYAWNKGSVVVAAAGNAGNTAPNYPAYYSNAIAVASTDQNDNKSSFSTYGSWVDVAAPGSSIYSTYPTSTYASLSGTSMATPHVAGVAGLLASQGRSASNIRAAIENTADKISGTGTYWAKGRVNAYKAVQY", "values": [{"measurement": "Specific activity (units/mg protein)", "setting": "[4]; purification step: (NH4)2SO4 (0-60%) fractionation", "result": 0.79, "unit": "units/mg protein"}, {"measurement": "Specific activity (units/mg protein)", "setting": "[4]; purification step: Bacitricin-Sepharose 4B", "result": 3.56, "unit": "units/mg protein"}, {"measurement": "Specific activity (units/mg protein)", "setting": "[4]; purification step: Cell free supernatant", "result": 0.05, "unit": "units/mg protein"}, {"measurement": "Activity levels of original versus recombinant protease at the same pHs", "setting": "BSA (1%, w/v) [2]", "result": "little difference in activity levels"}, {"measurement": "Detectable PrP by western blot, antibody 7A12", "setting": "[5]", "result": "complete loss of detectable PrP"}, {"measurement": "PrP signal by western blot, antibodies 8H4, 11G5 and GE8", "setting": "[5]", "result": "No signal"}, {"measurement": "Detectable PrP by western blot, antibody 7A12", "setting": "[6]", "result": "complete loss of detectable PrP"}, {"measurement": "Detectable PrP by western blot, antibody 7A12", "setting": "[7]", "result": "complete loss of detectable PrP"}, {"measurement": "Time to degrade 301V brain material", "setting": "PrP^Sc, BSE strain 301V", "result": "≤ 15", "unit": "min"}, {"measurement": "Time to degrade 301V from mouse brain homogenate", "setting": "PrP^Sc, BSE strain 301V", "result": "≤ 15", "unit": "min"}, {"measurement": "Removal of RML prion strain as detected by western blot", "setting": "[3]", "result": "remove all traces of the RML prion strain"}, {"measurement": "Detectable prion signal", "setting": "[8]", "result": "complete loss of detectable prion signal"}, {"measurement": "Time to degrade the prion", "setting": "[8]", "result": "≤ 15", "unit": "min"}, {"measurement": "pH of optimal activity", "setting": "BSA (1%, w/v) [9]; BSA in 0.1M Universal buffer, pHs 2.0-12.0", "result": "11.0 and > 8.0"}, {"measurement": "Temperature of optimal activity", "setting": "BSA (1%, w/v) [9]; assay at 20-90° C.", "result": 50, "unit": "°C"}, {"measurement": "Activity at the assay pH of pH 7.0", "setting": "BSA (1%, w/v) [9]; pH 7.0", "result": "retains significant activity"}]}
